Data taken from the nanobody polyreactivity screen of Harvey et al. (2022).

Assay: yeast display, Sf9 membrane polyspecificity reagent, FACS + sequencing; frameworks hold sequencing errors
Outline: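 After 36–48 hours of galactose induction, yeast (Saccharomyces cerevisiae BJ5465) displaying a synthetic nanobody library were stained at 4 °C for 1 hour with 10% biotinylated, detergent-solubilized Sf9 membrane reagent. Streptavidin microbeads enriched the stained cells before FACS sorting into low and high (top ~1%) gates on anti-HA and streptavidin fluorescence. Each clone's polyreactivity label reflects its gate of origin.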

| Sequence | polyreactivity (PSR sort gate) |
| --- | --- |
| QVQLVESGGGLVQAGGSLRLSCAASGRIFEGYAMGWYRQAPGKERELVAAITGSGGGTYYADSVKGRFTISRDNAKNTVYLQMNSLKPEDTAVYYCATAYSAYQHPYGYWGQGTQVTVSS | low polyreactivity |
| QVQLVESGGGLVQAGGSLRLSCAASGSIFFIYAMGWYRQAPGKERELVAAINDGGGSTYYADSVKGRFTISRDNAKNTVYLLMNSLKPEDTAVYYCAAEWSWGPYRYDYWGQGTQVTVSS | high polyreactivity |
| QVQLVESGGGLVQAGCSLRLSCAASGRTDFYTMGWYRQAPGKEMELVAAITSTGRTYYADSVKGRFTISRDNAKNTVYLKMNSLKPEDTAVYFCAAVWRYKGLLLPSYYYWGQGTQVTVSS | high polyreactivity |
| QVQLVESGGGLVQAGGSLRLSCAASGYIFGVYAMGWYRQAPGKERELVAAISYGVGSTYYADSVKGRFTISRDNAKNTVYLQMNSLKPEDNAVYYCAAEDTQVRWSPVRPLEDYWGQGTQVTVSS | low polyreactivity |
| QVQLVETGGGLFQAGGSLRLSCAASGSTFVYYAMGWYRQPPGKERELVAAISSGGNTKYADSVKGRFTISRDNAKNTFYLQMNSLKPEDTAVYYCARETQSYYDHDYWGQGTQVTLSS | low polyreactivity |
| QVQLVESGGGLVQAGGSLRLSCAASGFIFAKYAMGWYRQAPGKERELVAAITSGGSTNYADSVKGRFTISRDNAKNTVYLQMNSLKPEYTAVYYCNRGFDWWYRYRHYDYWGQGTQVTVSS | low polyreactivity |
| QVQHVESGGGLVQAGGSLRLSCAASGSTFPYYAMGWYRQAPGNERELVAAISNGVSTYYADSVKGRFTISRDNAKNTVYFHMNCLKQVDTAVYYCAGDFWITTRDIVKWWLYDYWGQGTQVTVSS | low polyreactivity |
| QVQLVESGGGLVQAGGSLRLSCAPSGFIFGHNTMGWYRQAPGKECELVARITSSGGRTYYADSVKGRFTISRDNAKNTVYLQMNSLKPLDSAVYYCAAVSPNTAYDYWGQGTQVTVSS | high polyreactivity |
| QVQLVESGGGLVQAGGSLRLSCAASGSTFSNNTMGWYRQAPGKERELVAAISWRGTRTYYADSVKGRFTISRDNAKNTVYLQMNSLKPEDTAVYYCNKLPTYPDYGYDSWGQGTQVTVSS | high polyreactivity |
| QVQLVESGGGLVQAGGSLRLSCAASGSTSDINAMGWYRQARGKEWQLVAVITDSSNTDYADSVKGRFTISRDNAKNTVYLEMNSLKPEETAVYYCAADRDEPDPYDYWGPGTQVTVSS | low polyreactivity |
| QVQLVESGGGLVQAGGSLRLSCAASGRIFQNYAMGWYRQATGKERELVAAIRRSSGRSYYADSVKGRFTISRDNAKNTVYLLMNSLKPEDTAVYYCNAVRGEEYDYWGQGTQVTVSS | high polyreactivity |
| QVQLVESVGGLDQAGGSLRLSCAASGYTFSLNAMGWYRQAPGKEREFVATIRSSGARTSYADSVKGRFTISRDNAKNTVYLQMNSLKPEDTAVYYCAARYYNSYRYAMGYWGQGTQVTVSS | high polyreactivity |
| QVQLVESGGGLVQAGGSLRLSCAASGSIFYSNKGWYRQAPGKEREFVAAISGSGVRTYYADSVKGRFTISRDNAKNTVYLQMNSLKPEDTAVYYCNAGRRQDYRYIYWGQGTQVTVSS | high polyreactivity |
| QVQLVESWGGLDQAGGSLRLSCAASGIIFQYYAMGWYRQAPGKERELVAAISWSGGSTYYADSVKGRFTISRDNAKNTVYLQMNSLKPEDTAVYYCAARSRSYWPYEGDYWGQGSQVTVSS | low polyreactivity |
| QVQLVESGGGLVQAGGSLRLSSAASGSIFTYYAMGGYRQAPGKEREFVAGISWSGGRTYYADSVKARFTISRDNAKNTGYLQMNSLKPEDTAVYYCNRQYRYIPSPFDYGGQGTQVTVSS | low polyreactivity |
| QVQLVESGGGLVQAGGSLRLSCAASGSTFGYYAMGWYRQAPGKERELVAAIRWCGGSTYADSVKGRFTISRDNAKNTVYLQMNSLKPEDTEVYYCAQYRWYGSVLGGYWGQGTQVTVSS | high polyreactivity |
| QVQLVESGGGLVQAGGSLRLSSPASGRTFGRYTMGWYRQAPGKESELVATISYNGGRTYYADSVKGRFTISRDNAKNTVYLQMNSRKPEDTAVNYCATRLPKSSLHDYWGQGTQVTVSS | high polyreactivity |
| QVQLVESGGGLVQAGGSLRLSCAASGRIFVYNAMGWYRQAPGKERELVAAITRGCSTYYADSVKGRFTISRDNAKNTVYLQMNSLKPEDTAVYYCASDYQRNDFRWYDYWGQGTQVTVSS | low polyreactivity |
| QVQLVESGGGLVQAGGSLRLSCAASGSIFYSNAMGWYRQAPGKERELVAAITVGGGRTYYADSVKGRFTISRDNAKYTVYLQMNSLNPEDTAVYYCAADSHASTYDYWGQGTQVTVSS | low polyreactivity |
| QVQLVESGGGLVQAGGRLRLSCAASGLTFPPNAMGWYRQAPGKERELVADSGGSTNYADSVKGRFTISRDNAKNTVYLQMNSLKPEDTAVYYCAAPPYSDGQWDDYWGQGTQVTVSS | low polyreactivity |
| QVQLVESGGGLVQAGGSLRLSCAASGRIFTYDAMGWYRPAPGKERELLATITSGGSTNYADSVKGRFTISRDNAMNTVYLQMNSLKPEDTAVDYCATRKYRVPRSYYWGQGTQVTVSS | high polyreactivity |
| QVQLVESGAGLVQAGGSLRLSCAASGLTSTNNAMGWYRQAPGKERELVAAITSGSTTNYADSVKGRFTISRDNAKNTVYLQMNSLKPEDTAVYYCAAQYGVWWRRYYYPEYDYWGQGTQVTVSS | low polyreactivity |

| Sequence | polyreactivity (PSR sort gate) |
| --- | --- |
| QVQLVESGGGLVQAGGSLRLSCAASGRIFNWYRMGWYRQAPGKERELVAAISRGGGRTYYADSVKGRFTISRDNAKNTVYLQMNSLKPEDTAVYYCNAVDASHAGPVGGAFRYDYWGQGTQVTVSS | high polyreactivity |
| QVQLVEKGGGLVQAGGSLRLSCAASGSTFRNNAMGRYREAPGKERELVAAIPYSGDSTSYADSVKGRFTISRDNAKNTVYLQMNSLKPEDTAVYYCNAAIDGIYLGSYTAYGYDSWGQGTQVTVSS | low polyreactivity |
| QVQLVESGGGLVQAGGSLRLSCAASGSTFRFNAMGWYRQAPGKERELVAVIRWRGGTTYYADSVKGRFTISRDNAKNTVYLQMKSLKPEDTAVYYCNADYWGQGTQVTVSS | high polyreactivity |
| QVQLVESGGGLVQAGGSLRLSCAASGRTFRHNAMGWYRQAPGKERELVATINRGGNTYYADSVKGRFTISRDNAKNTVYLQMNSLKPEDTAVYYCAARRSFLFDEGNYWGQGTQVTVSS | low polyreactivity |
| QVQLVESGGVLVQAGGSLRLSCAASGSTFWTNTMGWYRQAPGKERELVAAISRRGGTTYYADSVKGRFTISRDNAKNTVYLQMNSLKPEDTAVYYCATSLIGKTVPLRVYYWGQGTQVTVSS | high polyreactivity |
| QVQLVESGGGLVQAGGSLRLSCAASGRIFCFNAMGWYRQAPGKERELVAAISGTGGSTYYADSEKGRFTISRDNAKNTVYLQMNSLKPEDTAVYYCAAFYNYYGQRYYYWGQGTQVTVSS | high polyreactivity |
| QVQLVESGGGLVQAGGSLRLSCAASGGTFSTNAMGWYRQAPGKERELVAAISLSGGRTYADSVKGRFTISRDNAKNTVYLQMNSLKPEDTAVYYCNADSAGITRARSELDYWGQGTQVTVSS | low polyreactivity |
| QVQLVESGGGLVQAGGSLRLSCAASGSIFFIYAMGWYRQAPGKERELVATITSGGSTYYADSVNGRFTISRDNAKNTVYLQMNSLKPEDTAVYYCAVDEYFAFDYWGQGTQVTVSS | low polyreactivity |
| QVQLVESGGGLVQAGGSLRLICAASGGTFRAYVMGWYTQAPGKERELVAAISRSGTRTYYSDSVKGRFTISRDNAKNTVYFQMNSLKPEDTAVYYCAAAAKSWLFDYWGQGTLVTVSS | high polyreactivity |
| QVQLVESGGGLVQAGGSLRLSCAASGRTFTPYAMGWYRPAPGKERELVATISSGTSTNYADSVKGRVTISRDNAKNTVYLQMNSLKPEDTAVYYCSPSRDTVGRGPIQRDYWGQGTQVTVSS | low polyreactivity |
| QVQLDESGGGLVQAGGSLRLRCAASGFIFVSYAMGWYRQAPGKERELVAAISRGGGSTYYADSVKGRFTISRDNAKNTVYLQMNSLKPEDTAVYYCAAGRFYIDDYWGQGTQVTVSS | high polyreactivity |
| QVQLLETGGGLVQAGGSLRLSCAPSGGIFGFNAMGWYRQAPGKERELVADISDGVRTNYADSVKGLFTISRDNAKTTVYLQMNRLKPEDTAVYYCATDGLFYVDGSWTLGYWGQGTQVTVSS | low polyreactivity |
| QVQLVESGGGLVQAGGSLRLSCAASGFTISRYAMGWYRQAPGKERELVASITYSGTRTYYADSVKGRFTISRDNAKNTVYLQMNSLKPEDTAVYYCAADDEYKQEAEMDSWGQGTQVTVSS | low polyreactivity |
| QVHLVESGGGLVQAGGSLRLSCAASGRTFGPYTMGWYRQAPGTEREVVAAINSSGSRTYYADSVKGRFTISRDNAKNTVYLQMNSLKPEDTAVYYCADEAKWYYSWSYPYEGDYWGQGTQVTVSS | low polyreactivity |
| QVQLVESGGGLVQAGGSLRLSCAASGRTFYLYTMGWYRQAPGKERELVATISDGGGGTYYADSVKGRFTISRDNAKNTVYLQMNSLKPEDPAVYYCAADPIDVRDVPIPHVDFDYWGQGTQVTVSS | low polyreactivity |
| QVQLVESGGGLVQAGGSLRLSCAASGSTFSTYAMGWYRQAPGKERELVARITRSDTGTYYADSVKGRFTISRDNAKNTGYLQMNSLKPEDTAVYYCAADGWYDDSGWYYGYDYWGQGTQVTVSS | low polyreactivity |
| QVQLVESGGGLVQAGGSLRLSCAASGRTFYGYGMGWYRQAPGKERELVAGISVRGGSTYYADSVKGRFTISRDNAKNTVYLQMNSLKPEDTAVYYCAALGWRPTYYYWGHGTQVTVSS | high polyreactivity |
| QVQLVESGGGLVQAGGSLRLSCAASGRTFIYYAMGWYRQAPGKERELVASITTGGRTYYADSVKGRFTISRDNAKNTVYLQMNSLKPEDTAGYYCAAVRRIRRPRYGYWGQGTQVTVSS | high polyreactivity |
| QVQLVESGRGLVQAGGSLRLSCAASGFIFHRYAMGWYRQAPGKERELFAAITRTGGRTYYADSVKGRFTISRDNAKNTVYLQMNSLKPEDTEVYYCAAVRTLSYEYWGQGTKVTVSS | high polyreactivity |
| QVQLVDSGGGLVQAGGSLRLSCAASGIIFRAYAMGWSRAAPGKERELVAAISRRGSTTYYADSVKGRFTISRDNAKNTVYLQMNSLKPEDTAVYFCAADYAGPTGFDYWGQGTQVTVSS | high polyreactivity |
| QVQLVESGGGLVQAGGSLRLSCAASGSTFGSYAMGWYIQAPGKERELVAAISRAGSTYADSVKGRFTISRDNAKNTVYLQMNSLKPEDTAVYYCAKRDNALYYGYDYWGQGTQVTVSS | low polyreactivity |
